Laboratory results reported in publication PMC2063981 (The Journal of Cell Biology, 2007).

Target: GST–Rab7 (wild type, loaded with GTP or GTPγS) (UniProt P51149 1-207)
Assay: pull-down

Sequence of GST–Rab7 (wild type, loaded with GTP or GTPγS) (P51149 whole entry): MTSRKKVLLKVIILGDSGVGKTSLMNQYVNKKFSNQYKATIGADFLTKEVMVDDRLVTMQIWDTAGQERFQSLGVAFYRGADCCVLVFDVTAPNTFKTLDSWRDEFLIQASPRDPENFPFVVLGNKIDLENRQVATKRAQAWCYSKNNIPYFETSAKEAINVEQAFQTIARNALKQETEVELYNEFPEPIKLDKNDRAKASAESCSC

fold increase of binding in the presence of m9: ~4 fold
B1: in vitro–translated 35S-labeled ORP1L (full length) (natural protein, human, UniProt Q9BXW6-1 1-950, looked up)
chain: MNTEAEQQLLHHARNGNAEEVRQLLETMARNEVIADINCKGRSKSNLGWTPLHLACYFGHRQVVQDLLKAGAEVNVLNDMGDTPLHRAAFTGRKELVMLLLEYNADTTIVNGSGQTAKEVTHAEEIRSMLEAVERTQQRKLEELLLAAAREGKTTELTALLNRPNPPDVNCSDQLGNTPLHCAAYRAHKQCALKLLRSGADPNLKNKNDQKPLDLAQGAEMKHILVGNKVIYKALKRYEGPLWKSSRFFGWRLFWVVLEHGVLSWYRKQPDAVHNIYRQGCKHLTQAVCTVKSTDSCLFFIKCFDDTIHGFRVPKNSLQQSREDWLEAIEEHSAYSTHYCSQDQLTDEEEEDTVSAADLKKSLEKAQSCQQRLDREISNFLKMIKECDMAKEMLPSFLQKVEVVSEASRETCVALTDCLNLFTKQEGVRNFKLEQEQEKNKILSEALETLATEHHELEQSLVKGSPPASILSEDEFYDALSDSESERSLSRLEAVTARSFEEEGEHLGSRKHRMSEEKDCGGGDALSNGIKKHRTSLPSPMFSRNDFSIWSILRKCIGMELSKITMPVIFNEPLSFLQRLTEYMEHTYLIHKASSLSDPVERMQCVAAFAVSAVASQWERTGKPFNPLLGETYELVRDDLGFRLISEQVSHHPPISAFHAEGLNNDFIFHGSIYPKLKFWGKSVEAEPKGTITLELLEHNEAYTWTNPTCCVHNIIVGKLWIEQYGNVEIINHKTGDKCVLNFKPCGLFGKELHKVEGYIQDKSKKKLCALYGKWTECLYSVDPATFDAYKKNDKKNTEEKKNSKQMSTSEELDEMPVPDSESVFIIPGSVLLWRIAPRPPNSAQMYNFTSFAMVLNEVDKDMESVIPKTDCRLRPDIRAMENGEIDQASEEKKRLEEKQRAARKNRSKSEEDWKTRWFHQGPNPYNGAQDWIYSGSYWDRNYFNLPDIY
modifications: 35S-labeled
